According to patent US20220064329A1 (Novo Nordisk, published 2022):
Numbering of substitutions follows the chain as printed. Read-outs that look alike come from different tables or passages of the source. Blank lines part the entries; values can stand above or below the binder they belong to.

What was measured:
[1] = biological target: T1, recombinant human activated FVII (FVIIa) (human, UniProt P08709 61-212; P08709 213-466, ten glutamate residues of the Gla domain may be gamma-carboxylated); assay: dissociation constant listed with the stimulatory activities (SPR)
T1 construct: Two-chain form after cleavage between Arg152 and Ile153; light and heavy chain tethered by a disulfide bond; also called rFVIIa; Factor VIIa
T1 sequence 1: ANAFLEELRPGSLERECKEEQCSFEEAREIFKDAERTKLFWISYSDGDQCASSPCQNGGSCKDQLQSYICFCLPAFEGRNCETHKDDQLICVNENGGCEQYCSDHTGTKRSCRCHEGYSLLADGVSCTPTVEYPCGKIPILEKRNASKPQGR
T1 sequence 2: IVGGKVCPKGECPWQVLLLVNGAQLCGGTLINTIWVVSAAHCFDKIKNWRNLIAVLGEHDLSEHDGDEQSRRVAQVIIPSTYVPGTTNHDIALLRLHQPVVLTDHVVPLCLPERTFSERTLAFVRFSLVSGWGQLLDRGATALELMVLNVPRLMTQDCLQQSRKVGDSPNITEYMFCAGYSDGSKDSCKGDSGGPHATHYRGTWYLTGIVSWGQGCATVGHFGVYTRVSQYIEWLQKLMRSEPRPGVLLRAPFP

[2] = biological target: T2, sTLT1 (SEQ ID No: 3 with six histidine residues added at the C-terminus) (human, UniProt Q86YW5 16-162); assay: as above
T2 construct: Soluble TLT-1 used in SPR
T2 sequence: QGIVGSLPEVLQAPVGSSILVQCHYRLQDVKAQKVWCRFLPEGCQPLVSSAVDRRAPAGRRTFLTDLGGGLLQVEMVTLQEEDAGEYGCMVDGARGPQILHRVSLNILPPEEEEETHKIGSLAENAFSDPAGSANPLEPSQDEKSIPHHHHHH

[3] = biological target: T1, recombinant human activated FVII (FVIIa); assay: cell-based or functional assay
[4] = biological target: T2, sTLT1 (SEQ ID No: 3 with six histidine …); assay: SPR, Biacore T200, 25 C; biAb captured on anti-human IgG, sTLT1 injected; 1:1 model
Experimental: (§1) Binding of sTLT1 (corresponding to SEQ ID No: 3 with six histidine residues added at the C-terminus) to biAb from (Example 4) was probed by surface plasmon resonance (Biacore T200) at 25° C. Anti-human IgG was immobilised on a CM5 sensor chip (both supplied by GE Healthcare) using standard amine coupling chemistry. Purified biAbs according to Table 21 (1 nM) were injected at a flow rate of 10 μl/min for 1 min. Subsequently, sTLT1, between 0 and 60 μM, were injected at a flow rate of […] for 3 min to allow for binding to the biAb followed by a 3 min buffer injection allowing for dissociation from the biAb. The running buffer was prepared by diluting 10-fold the 10×HBS-P buffer (supplied by GE Healthcare) and supplemented with 1 mg/ml BSA and 5 mM CaCl₂) to give 10 mM HEPES, 150 mM NaCl, 0.05% v/v Polysorbate 20, pH 7.4, 5 mM CaCl₂), 1 mg/ml bovine serum albumin (BSA). The running buffer was also used for dilution of biAb and sTLT1 samples. Regeneration of the chip was achieved using recommended regeneration buffer consisted of 3M MgCl2 (supplied by GE Healthcare). Binding data were analysed according to a 1:1 model using BiaEvaluation 4.1 supplied by the manufacturer (Biacore AB, Uppsala, Sweden).

[5] = biological target: T2, sTLT1 (SEQ ID No: 3 with six histidine …); assay: KD (TLT-1) listed for the biAbs of Example 30 (SPR value of Table 21)
Experimental: as §1

[6] = biological target: T1, recombinant human activated FVII (FVIIa); assay: cell-based or functional assay; remark: listed apart in the source
[7] = biological target: T2, sTLT1 (SEQ ID No: 3 with six histidine …); assay: dissociation constant listed with the stimulatory activities; value of the anti-TLT-1 arm
[8] = biological target: T1, recombinant human activated FVII (FVIIa); assay: dissociation constant listed with the stimulatory activities; value of the anti-FVII(a) arm mAb0873

B1: biAb0095 (bispecific antibody, human IgG4 S228P, kappa)
heavy 1: QVQLQESGPGLVKPSQTLSLTCTVSGYSISSDSAWSWIRQPPGKGLEWIGYIQYSGSTNYNPSLKSRVTISRDTSKNQFSLKLSSVTAADTAVYYCARSVNYYGNSFAVGYWGQGTLVTVSSASTKGPSVFPLAPCSRSTSESTAALGCLVKDYFPEPVTVSWNSGALTSGVHTFPAVLQSSGLYSLSSVVTVPSSSLGTKTYTCNVDHKPSNTKVDKRVESKYGPPCPPCPAPEFLGGPSVFLFPPKPKDTLMISRTPEVTCVVVDVSQEDPEVQFNWYVDGVEVHNAKTKPREEQFNSTYRVVSVLTVLHQDWLNGKEYKCKVSNKGLPSSIEKTISKAKGQPREPQVYTLPPSQEEMTKNQVSLTCLVKGFYPSDIAVEWESNGQPENNYKTTPPVLDSDGSFLLYSKLTVDKSRWQEGNVFSCSVMHEALHNHYTQKSLSLSLGK
light 1: EIVLTQSPATLSLSPGERATLSCRASQGISDYLHWYQQKPGEAPRLLIKYTSQPATGIPARFSGSGSGTDFTLTISSLEPEDFAVYYCQNGHSFPLTFGQGTKLEIKRTVAAPSVFIFPPSDEQLKSGTASVVCLLNNFYPREAKVQWKVDNALQSGNSQESVTEQDSKDSTYSLSSTLTLSKADYEKHKVYACEVTHQGLSSPVTKSFNRGEC
heavy 2: not shown
light 2: DIVMTQTPLSSPVTLGQPASISCRSSQSLVHRNGNTYFHWLQQRPGQPPRLLIYKVSNRFSGVPDRFSGSGAGTDFTLKISRVEAEDVGVYYCSQSTHVPYTFGQGTKLEIKRTVAAPSVFIFPPSDEQLKSGTASVVCLLNNFYPREAKVQWKVDNALQSGNSQESVTEQDSKDSTYSLSSTLTLSKADYEKHKVYACEVTHQGLSSPVTKSFNRGEC
notes: Duobody, constant domain type H (IgG4): anti-FVII(a) arm mAb0865, anti-TLT-1 arm mAb1047; also called mAb0865 x mAb1047
- Kd [1]: 0.06 nM
- Kd [2]: 75 nM
- Stimulation (fold): FXa generated by FVIIa with lipidated TLT-1 and 100 nM biAb, relative to free FVIIa [3]: 13.9 fold
- Kd [4]: 75 nM
- Kd [5]: 75 nM

B3: biAb0244 (bispecific antibody, human IgG4 S228P, kappa)
heavy 1: QVQLKESGPGLVAPSQSLSITCTVSGFSLTDYGVSWIRQPPGKGLEWLGVIWGGGNTYNNSALKSRLSISKDNSKSQVFLKMNSLQADDTAMYFCAKHGYYGYVMDYWGQGTSVTVSSASTKGPSVFPLAPCSRSTSESTAALGCLVKDYFPEPVTVSWNSGALTSGVHTFPAVLQSSGLYSLSSVVTVPSSSLGTKTYTCNVDHKPSNTKVDKRVESKYGPPCPPCPAPEFLGGPSVFLFPPKPKDTLMISRTPEVTCVVVDVSQEDPEVQFNWYVDGVEVHNAKTKPREEQFNSTYRVVSVLTVLHQDWLNGKEYKCKVSNKGLPSSIEKTISKAKGQPREPQVYTLPPSQEEMTKNQVSLTCLVKGFYPSDIAVEWESNGQPENNYKTTPPVLDSDGSFLLYSKLTVDKSRWQEGNVFSCSVMHEALHNHYTQKSLSLSLGK
light 1: DIVMTQSHKIMSTLVGDRVSITCKASQDVDPAVAWYQQKPGQYPKLLIYWASTRHTGVPDRFTGSGSGTDFTLTISNVQSEDLADYFCQQYSKYPYTFGGGTKLEIKRTVAAPSVFIFPPSDEQLKSGTASVVCLLNNFYPREAKVQWKVDNALQSGNSQESVTEQDSKDSTYSLSSTLTLSKADYEKHKVYACEVTHQGLSSPVTKSFNRGEC
heavy 2: not shown
light 2: B1 light 2 with N33Q
- Stimulation (fold): FXa generated by FVIIa with lipidated TLT-1 and 100 nM biAb, relative to free FVIIa [6]: 2.7 fold

B4: biAb0241 (bispecific antibody, human IgG4 S228P, kappa)
heavy 1: B1 heavy 1
light 1: B1 light 1
heavy 2: not shown
light 2: DIVVSQSPSSLAVSAGEKVTMSCKSSQSLLNSRTRKNYLAWYQQKPGQSPKLLIYWASTRESGVPDRFTGSGSGTDFTLTISSVQAEDLAVYYCKQSYNLLTFGAGTKLELKRTVAAPSVFIFPPSDEQLKSGTASVVCLLNNFYPREAKVQWKVDNALQSGNSQESVTEQDSKDSTYSLSSTLTLSKADYEKHKVYACEVTHQGLSSPVTKSFNRGEC
- Stimulation (fold): FXa generated by FVIIa with lipidated TLT-1 and 100 nM biAb, relative to free FVIIa [6]: 35.3 fold

B6: biAb0099 (bispecific antibody, human IgG4 S228P, kappa)
heavy 1: B1 heavy 1 with Q1D, A108W, G110D, Y111P
light 1: DIVMTQSPATLSVTAGDRVSLSCRASQGISDYLHWYQQKSHESPRLLIKYTSQPVSGIPSRFSGSGSGSEFTLSINSVEPEDVGVYYCQNGHSFPLTFGAGTKLELKRTVAAPSVFIFPPSDEQLKSGTASVVCLLNNFYPREAKVQWKVDNALQSGNSQESVTEQDSKDSTYSLSSTLTLSKADYEKHKVYACEVTHQGLSSPVTKSFNRGEC
heavy 2: not shown
light 2: B1 light 2
notes: Duobody, constant domain type H (IgG4): anti-FVII(a) arm mAb0873, anti-TLT-1 arm mAb1047; also called mAb0873 x mAb1047
- Stimulation (fold): FXa generated by FVIIa with lipidated TLT-1 and 100 nM biAb, relative to free FVIIa [3]: 5.8 fold
- Kd [7]: 75 nM
- Kd [8]: 600 nM

B7: biAb0014 (bispecific antibody, human IgG4 S228P, kappa)
heavy 1: B1 heavy 1 with Q1D, A108W, G110D, Y111P
light 1: B6 light 1
heavy 2: not shown
light 2: B1 light 2 with N33Q
notes: also called mAb0873 x mAb1076
- Stimulation (fold): FXa generated by FVIIa with lipidated TLT-1 and 100 nM biAb, relative to free FVIIa [3]: 8 fold
- Kd [7]: 2.9 nM
- Kd [8]: 600 nM

B9: biAb0094 (bispecific antibody, human IgG4 S228P, kappa)
heavy 1: B1 heavy 1 with Q1D, A108W, G110D, Y111P
light 1: B6 light 1
heavy 2: not shown
light 2: B1 light 2
notes: Duobody, constant domain type H (IgG4): anti-FVII(a) arm mAb0873, anti-TLT-1 arm mAb1049; also called mAb0873 x mAb1049
- Stimulation (fold): FXa generated by FVIIa with lipidated TLT-1 and 100 nM biAb, relative to free FVIIa [3]: 5.4 fold
- Kd [7]: 320 nM
- Kd [8]: 600 nM

The next lines start with the values.

- Stimulation (fold): FXa generated by FVIIa with lipidated TLT-1 and 100 nM biAb, relative to free FVIIa [6]: 25.5 fold
B2: biAb0243 (bispecific antibody, human IgG4 S228P, kappa)
heavy 1: B1 heavy 1
light 1: B1 light 1
heavy 2: not shown
light 2: DIQMTQTTSSLSASLGDRVTISCRASQDISNYLNWYQQKPDGTVKLLIFYTSRLHSGVPSRFSGSGSGTDYSLTISNLEPEDIATYYCQQDTKLPYTFGGGTKLEMKRTVAAPSVFIFPPSDEQLKSGTASVVCLLNNFYPREAKVQWKVDNALQSGNSQESVTEQDSKDSTYSLSSTLTLSKADYEKHKVYACEVTHQGLSSPVTKSFNRGEC

- Stimulation (fold): FXa generated by FVIIa with lipidated TLT-1 and 100 nM biAb, relative to free FVIIa [6]: 21.8 fold
B5: biAb0242 (bispecific antibody, human IgG4 S228P, kappa)
heavy 1: B1 heavy 1
light 1: B1 light 1
heavy 2: not shown
light 2: SIVMTQTPKFLLVSAGDRVTITCKASQSVSNDVAWYQQKPGQSPKLLINYASSRYTGIPDRFTGSGYGTDFTFTISTVQAEDLAVYFCQQDYSSPYTFGGGTKLEIERTVAAPSVFIFPPSDEQLKSGTASVVCLLNNFYPREAKVQWKVDNALQSGNSQESVTEQDSKDSTYSLSSTLTLSKADYEKHKVYACEVTHQGLSSPVTKSFNRGEC

- Stimulation (fold): FXa generated by FVIIa with lipidated TLT-1 and 100 nM biAb, relative to free FVIIa [3]: 9.4 fold
- Kd [7]: 19 nM
- Kd [8]: 600 nM
B8: biAb0019 (bispecific antibody, human IgG4 S228P, kappa)
heavy 1: B1 heavy 1 with Q1D, A108W, G110D, Y111P
light 1: B6 light 1
heavy 2: not shown
light 2: B1 light 2 with N33P
notes: also called mAb0873 x mAb1038
